Data taken from the supplement of paper PMC10567573.
± gives the standard deviation.

Assay: protein stability index of a GFP-peptide fusion (GPS, HEK-293T) (PSI 1-6); higher = more stable
Details: c terminus: a fixed tail appended
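Further: 24-mer peptide tiles fused after GFP, lentivirally expressed, FACS-sorted into six equal bins by GFP/DsRed ratio, decoded by Illumina sequencing, PSI is the read-weighted mean bin number.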

Sequence | protein stability index (treatment: DMSO) | protein stability index (treatment: MLN4924 1 uM, 8 h)
PSELRDLVTQQLPHLMPSNCGLEE [S100A14] | 2.71 ± 0.22 | 3.02 ± 0.18
PSSPGRFTKETTQKNFNNLYGTKG [TRIM29] | 4.2 ± 0.27 | 4.37 ± 0.085
PSVRKKAGSFSRRLIKRFSFKSKP [C2CD2L] | 3.34 ± 0.56 | 3.35 ± 0.31
PTEQVNELVALIPHSDQRLRPQRT [TMEM106C] | 4.63 ± 0.12 | 4.75 ± 0.1
PTRCLPGHKEEEDGEGAGPGEQGG [ESRRA] | 5.68 ± 0.3 | 5.38 ± 0.26
PTVIRNVGLGTCSMFSRVGGIIAP [SLC22A15] | 2.34 ± 0.3 | 2.23 ± 0.47
PTYKVMYKIVTAREWRCCPGHSGV [EMID1] | 2.5 ± 0.57 | 2.89 ± 0.75
PVAAQFTSEGTTLSGVDLELVGSG [FCHO1] | 4.54 ± 0.17 | 4.57 ± 0.24
PVLRPMDLMVEATPRRVFANAHTY [PPP2R2B] | 2.68 ± 0.17 | 2.82 ± 0.075
PYDGNSSDPENWDRKLHSRPRKLY [BTBD10] | 3.35 ± 0.24 | 3.41 ± 0.34
PYVCHAELNAIMNKNSTDVKGCSM [DCTD] | 3.41 ± 0.22 | 3.43 ± 0.33
QAALQKQQEVVVAGSSLPTSSKVN [ACBD3] | 5.04 ± 0.18 | 5.03 ± 0.063
QAALRAARLRHQELFRLRGIKAQV [NOP53] | 2.4 ± 0.19 | 2.86 ± 0.57
QAGDYSMRVDLRAGDEAVFAQYDS [TNXB] | 4.43 ± 0.42 | 4.2 ± 0.096
QAQIHGLPVPPTPGLLSLATTSAS [TFE3] | 3.86 ± 0.11 | 3.87 ± 0.18
QDSFEAAGNSTSGSRAGASSFSDP [KCNA3] | 5.42 ± 0.31 | 5.35 ± 0.16
QEDSGLRDHSVRVLISNHVTPFDH [AUP1] | 3.9 ± 0.12 | 3.67 ± 0.29
QEGLLDRCVSFQARFAEKEELMLV [HDAC6] | 2.44 ± 0.34 | 2.52 ± 0.53
QELNELFKPVVAAQKISKGADPKS [ZC3H15] | 4.8 ± 0.13 | 4.92 ± 0.18
QERQMLQALKFLPVPSAPVIDLAE [FSD1] | 3.47 ± 0.31 | 3.3 ± 0.25
QGVEGDHCVTSDPATSPLVLAIPR [TRIM35] | 4.43 ± 0.27 | 4.66 ± 0.22
QGVISQLEDTCKTIEECCRKQKQE [TRIM55] | 5.2 ± 0.29 | 5.34 ± 0.31

Sequence | protein stability index (treatment: DMSO) | protein stability index (treatment: MLN4924 1 uM, 8 h)
QHGQLGTNTRRGSRAPCKVQGLEG [NEK8] | 4.18 ± 0.15 | 4.19 ± 0.19
QHNLCRKCASDIFQASNPYLPTRG [TRIM55] | 2.29 ± 0.26 | 2.45 ± 0.22
QKEQGLSDNILSPVMNGGVQTWTQ [PDZK1] | 2.84 ± 0.5 | 3.32 ± 0.71
QLCGKTFLTLEKFTIHNYSHSRER [PLAGL1] | 2.15 ± 0.57 | 2.27 ± 0.27
QLDWDELETNQQHFHALCHSLLVS [M1AP] | 2.3 ± 0.29 | 2.69 ± 0.45
QLEEGLKDTDLARVRRFQVVEVTK [M1AP] | 4.06 ± 0.15 | 4.04 ± 0.32
QLGDLHTCLMMDMKACQEDDVRLL [INTS3] | 3.41 ± 0.18 | 3.56 ± 0.19
QMTNIGVYVSNMTDKLVTPGKYFS [IQUB] | 2.31 ± 0.5 | 2.49 ± 0.28
QNHGQHLILSREASWAKPHYEFNL [LCOR] | 2.28 ± 0.23 | 2.51 ± 0.35
QNKIRACGERLSLGLSRAQPVQSK [PDLIM7] | 3.92 ± 0.28 | 3.85 ± 0.2
QNPRQVAQSEAEKKLKKDDKKKEL [ZC3H15] | 5.52 ± 0.22 | 5.58 ± 0.19
QPPLTYKRFQTLISKMEPLEIPVE [CRY1] | 2.97 ± 0.39 | 2.79 ± 0.34
QPPQSQAQVPPAAPHHHHHHSHSG [PLK2] | 4.71 ± 0.2 | 4.64 ± 0.13
QPQALLVDGDQSKILISGLEPSTP [TNXB] | 4.73 ± 0.31 | 4.69 ± 0.23
QPTIVEALLGYEMVQVACGASHVL [NEK8] | 2.75 ± 0.45 | 2.74 ± 0.7
QQIQGLISSIEAQLSELRSEMECQ [KRT13] | 3.6 ± 0.14 | 3.44 ± 0.5
QSFIIPLERYVASLMPLQKSISPW [DENND6A] | 2.25 ± 0.04 | 2.46 ± 0.56
QVYKETRLFLDGEEEKEWAFEESK [AASDHPPT] | 4.56 ± 0.26 | 4.74 ± 0.15
RAAAQQRRSFLNAHHRSGAQVFPE [GNAS] | 3.53 ± 0.12 | 3.5 ± 0.23
RAALISRRHLQFWKSHLKKVQKPL [RHOBTB1] | 2.22 ± 0.16 | 2.54 ± 0.34
RAGGGGGGDYGLVTAGCGFGKDFR [PPTC7] | 3.33 ± 0.51 | 3.13 ± 0.21
RAVVEAVHRLDLILCNKTAYQEVF [SMG5] | 2.92 ± 0.43 | 2.92 ± 0.85

Sequence | protein stability index (treatment: DMSO) | protein stability index (treatment: MLN4924 1 uM, 8 h)
RCGVPDVAQFVLTEGNPRWEQTHL [MMP1] | 2.42 ± 0.4 | 2.3 ± 0.24
RDCLVLNQGYLSEAGASLVDQKLE [PI4K2A] | 4.29 ± 0.28 | 4.54 ± 0.11
RDDLDRLGVFLDYEAGVLAFYDVT [TRIM14] | 2.55 ± 0.31 | 2.06 ± 0.53
RDLAARWKKLVLVDRNTRPGPQDP [ELOA2] | 3.38 ± 0.19 | 3.49 ± 0.23
REAEKQNYLAEHCPPLHIPGSMSE [TNNI2] | 4.67 ± 0.25 | 4.72 ± 0.31
REDDKLVVECVMKGVTSTRVYERA [FABP4] | 3.68 ± 0.38 | 4.09 ± 0.29
REIARYLLEQGAQVNRRSAKGNTA [FEM1A] | 3.29 ± 0.12 | 3.54 ± 0.31
RFCSEIKSSKYGEGHQAWIVGIVE [SEPHS2] | 2.23 ± 0.21 | 2.12 ± 0.37
RGAPAVQQNIPSTLLQDHENQRLF [WAS] | 4.25 ± 0.2 | 4.29 ± 0.15
RGGMGSGGLATGIAGGLAGMGGIQ [KRT18] | 3.61 ± 0.18 | 3.38 ± 0.23
RGGRQKYKRRIDAENSPYLNPQLV [ESRRG] | 3.59 ± 0.25 | 3.93 ± 0.21
RGHQNWVYSCAFSPDSSMLCSVGA [WSB1] | 2.07 ± 0.18 | 2.03 ± 0.23
RGNLSILAAVLVEPKLHTPMYFFL [OR3A1] | 2.86 ± 0.46 | 3.06 ± 0.57
RGTQYSSLDSLDGLSLTDESDSCV [PSD2] | 5.26 ± 0.22 | 5.3 ± 0.14
RGTYEQDGRFEKRQGNPSWKKQQK [ZNF396] | 4.63 ± 0.34 | 4.72 ± 0.41
RHQSIFKSNGFFHGISIPEPEDME [CDKL4] | 3.58 ± 0.27 | 3.87 ± 0.15
RIFDIKDGKLLWEQELYNNFVYNS [WASL] | 2.15 ± 0.67 | 2.13 ± 0.62
RIHERLVAGSLAGAIAQSSIYPME [SLC25A25] | 2.74 ± 0.52 | 2.56 ± 0.27
RILLRMTLGREVMSPLQAMSSYTV [NLN] | 2.67 ± 1.1 | 2.45 ± 0.32
RINLVAAIFSAPAFPAAVSSMKKF [PSD2] | 2.37 ± 0.46 | 2.27 ± 0.59
RIQTQKEQAKENENGELQKIILPR [ZC2HC1C] | 4.77 ± 0.21 | 4.51 ± 0.41
